Experiment [1] has as its target human PD-L1 (on cells or in tissue) (human) (UniProt Q9NZQ7). Description: IHC histoscore (0-300), FFPE tumor Mel sample T980747; 28-8 at 2 ug/ml.
Experiment [2] has the same target. In words: IHC histoscore (0-300), FFPE tumor RCC sample 1164619B; 28-8 at 2 ug/ml.
Experiment [3] has the same target. Description: IHC histoscore (0-300), FFPE tumor NSCLC sample 1080766B; 28-8 at 2 ug/ml.
The target is the same in experiment [4]. Description: IHC histoscore (0-300), FFPE tumor Mel sample T980744; 28-8 at 2 ug/ml.
Experiment [5] has the same target. Description: IHC histoscore (0-300), FFPE tumor Mel sample T030668; 28-8 at 2 ug/ml.
Experiment [6] has as its target human PD-L1 (antigen of the surface plasmon resonance analysis) (human) (UniProt Q9NZQ7). Description: surface plasmon resonance; KD given for clone 28-8 alone.
In experiment [7] the target is human PD-L1 (on cells or in tissue) (human) (UniProt Q9NZQ7). In words: IHC histoscore (0-300), FFPE tumor Mel sample 1168657B; 28-8 at 2 ug/ml.
Chain of human PD-L1 (on cells or in tissue) (human) (Q9NZQ7 19-290): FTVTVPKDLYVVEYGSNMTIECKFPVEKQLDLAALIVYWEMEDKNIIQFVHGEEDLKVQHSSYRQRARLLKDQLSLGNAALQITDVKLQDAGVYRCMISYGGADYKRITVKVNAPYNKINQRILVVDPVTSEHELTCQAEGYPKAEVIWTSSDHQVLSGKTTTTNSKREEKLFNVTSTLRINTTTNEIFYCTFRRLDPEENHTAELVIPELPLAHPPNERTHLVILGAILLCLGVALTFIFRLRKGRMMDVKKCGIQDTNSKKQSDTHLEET
For experiment [8] the target is unchanged. In words: IHC histoscore (0-300), FFPE tumor NSCLC sample 1080993B; 28-8 at 2 ug/ml.
The target is the same in experiment [9]. Description: IHC histoscore (0-300), FFPE tumor NSCLC sample 1080754B; 28-8 at 2 ug/ml.
Experiment [10] shares this target. Description: IHC histoscore (0-300), FFPE tumor RCC sample 1167809B; 28-8 at 2 ug/ml.
For experiment [11] the target is unchanged. In words: IHC histoscore (0-300), FFPE tumor NSCLC sample 1080790; 28-8 at 2 ug/ml.
Experiment [12] has the same target. In words: IHC histoscore (0-300), FFPE tumor NSCLC sample 1080754B; 5H1 at 5 ug/ml.
Experiment [13] shares this target. Description: IHC histoscore (0-300), FFPE tumor Mel sample 1168657B; 5H1 at 5 ug/ml.
The target is the same in experiment [14]. In words: IHC histoscore (0-300), FFPE tumor Mel sample T030668; 5H1 at 5 ug/ml.
Experiment [15] shares this target. Description: IHC histoscore (0-300), FFPE tumor NSCLC sample 1080766B; 5H1 at 5 ug/ml.
Experiment [16] has the same target. Description: IHC histoscore (0-300), FFPE tumor NSCLC sample 1080790; 5H1 at 5 ug/ml.
Experiment [17] shares this target. Description: IHC histoscore (0-300), FFPE tumor RCC sample 1167809B; 5H1 at 5 ug/ml.
Experiment [18] has the same target. In words: IHC histoscore (0-300), FFPE tumor RCC sample 1164619B; 5H1 at 5 ug/ml.
Experiment [19] shares this target. Description: IHC histoscore (0-300), FFPE tumor Mel sample T980744; 5H1 at 5 ug/ml.
Experiment [20] shares this target. Description: IHC histoscore (0-300), FFPE tumor NSCLC sample 1080993B; 5H1 at 5 ug/ml.

Broadly, the Kd is the constant that tells how readily two partners part at equilibrium.

Chain of human PD-L1 (antigen of the surface plasmon resonance analysis) (human) (Q9NZQ7 19-238 limits assumed): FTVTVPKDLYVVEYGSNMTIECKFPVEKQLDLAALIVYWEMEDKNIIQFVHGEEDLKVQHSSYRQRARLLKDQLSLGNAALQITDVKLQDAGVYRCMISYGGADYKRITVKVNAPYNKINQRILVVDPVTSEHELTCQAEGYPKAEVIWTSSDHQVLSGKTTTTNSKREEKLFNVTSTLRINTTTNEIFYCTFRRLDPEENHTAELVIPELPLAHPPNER

Consider “rabbit anti-human PD-L1 mAb 28-8 (antibody)”, for which the Histoscore Average in experiment [1] is 9; in [2], 4; in experiment [3] it was 130; in [4], 123; in [5], 113; in experiment [7], 0. Moreover, the Histoscore Average in experiment [8] was 16; in experiment [9], 261; in [10] it was 125; in experiment [11], 37. In addition, the Kd in [6] stood at 0.1 nM.

Consider “murine anti-human PD-L1 mAb 5H1 (antibody)”, for which the Histoscore Average in [12] was 245; in experiment [13], 0; in experiment [14], 98; in experiment [15], 103; in [16], 40; in experiment [17], 108. Also, the Histoscore Average is 4 in experiment [18], 98 in experiment [19] and 12 in [20].
